Measurements published in the supplement of paper PMC12764529.
± gives the half width of the 95% confidence interval.

Assay: folding stability dG unfold from trypsin proteolysis; higher = more stable
Outline: (§1)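 Mini-proteins designed to be under 80 residues and free of cysteine were carried in a PA-tagged cDNA display construct and digested with trypsin and with chymotrypsin. Each protease was applied at 11 threefold-diluted concentrations, alongside a no-protease condition, before sequencing. K50 came from Bayesian fitting of the sequencing counts, and unfolding free energy was obtained by comparing it with a sequence-predicted unfolded-state K50 and a shared folded-state K50, for each protease separately or for both together. Designs were retained only if their AlphaFold2 dimer inter-PAE exceeded 15.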
In the case of “SAGGMYVEVVIDNPDPDISPEELAEEVARELAPDPFEIKPVKIEPELIGGIPKVTILFEVDDPEAVEESAGG [r13_979_TrMRF]”, the “folding stability dG unfold” value is reported as 0.238 ± 0.049 kcal/mol. In the case of “KIEIKVHPDGTLLIKAPLELIDLLIKLLKEKGYDAKILKIDPENGYVLIPVKPKPPPIPKPTPEELLKALFS [r1_78_TrMRF]”, the “folding stability dG unfold” value is reported as 2.29 ± 0.096 kcal/mol. In the case of “SAGGKTLVITVEAPPEDWDKILELAREALELGGDVVVVAPFPDGLTVTVRAEKPLGKIVEVTVAPDDASAGG [r13_873_TrMRF]”, the “folding stability dG unfold” value is reported as 0.578 ± 0.053 kcal/mol. With “SAGGSAGGSAGGMRLVRITTEDGRTITAPVGETITITRPDGSKVKITRVEVFELPPEDLSAGGSAGGSAGGS [r10_20_TrROS_Hall]” the “folding stability dG unfold” value was 0.744 ± 0.021 kcal/mol. In the case of “SAGMKITVVELDGKSPEELSEEELKKLAEELLKELFPDVKKVKKVTVKVERLPDGRLVLVEVEIEVEEPSAG [r5_526_TrROS_Hall]”, the “folding stability dG unfold” value is reported as 2.18 ± 0.13 kcal/mol. In the case of “SAGGSAGGRIEVDPEGATIKYEHNPNMMQIEIKYPGKKVQIMIPPDFMKQNPDMPIKDLVEWILSAGGSAGG [r6_369_TrROS]”, the “folding stability dG unfold” value is reported as 1.09 ± 0.081 kcal/mol. For “SAMVSPEEAAKLIAEKIREEHPDPNIVVPVKVEYDPETNTTTITVTVKYPDDPSTETFTYTLAPDDVLKSAG [r14_849_JUSTAS]”, the “folding stability dG unfold” value was 1.53 ± 0.044 kcal/mol. For “SAGGMYEIVDLLSVEPDPETGALTRTFLLRDPDSDRFLVAEVRIDPENPDRVEIRLYDEDGNLIAEFPSAGG [r13_658_TrMRF]”, the “folding stability dG unfold” value was 3.36 ± 0.083 kcal/mol. With “SAGGSPVVLTKSPDGLLYVVTLTDPANSLDRVKAKVTAYDPNKPVPLGELTIELDPKTGKAVSALSSAGGSA [r2_324_JUSTAS]” the “folding stability dG unfold” value was -0.543 ± 0.097 kcal/mol. With “SAGGDPGWVRVTAEIELDGKNLKIEWWYMPNGNYYYNIEFPNGKEIEIMIPMEPGDVEEFAEYIAKKLSAGG [r13_296_TrROS]” the “folding stability dG unfold” value was 2.32 ± 0.069 kcal/mol. For “SAGGMKSETIPLTTPEGVPFEVTITTENGKVTVTITPLDPSAPEEVVEAVRAAVEARAAAAGKTVTLVSAGG [r13_774_JUSTAS]”, the “folding stability dG unfold” value was 1.47 ± 0.046 kcal/mol. For “SAGGWYIRIKEIERNNDGVNIDIQIPDPDDPEFFENIAENLAQKLGMPKENIKIRIEPTPMPPDPEEPSAGG [r13_430_TrROS]”, the “folding stability dG unfold” value was 0.248 ± 0.13 kcal/mol. With “MKYTLTLTDPTTPTTSTLTVPNDPEKALALLREAKAANPNLTATLTGVTSEEIVEAAKKAGLKDIKPKTAAS [r1_114_JUSTAS]” the “folding stability dG unfold” value was 0.15 ± 0.13 kcal/mol. With “SAGGSAGGSAGGSMLVEKKTFKDPKTGKTYIEIVIKDENGNLLSVKILSTEDPEKIEKLLSAGGSAGGSAGG [r7_484_JUSTAS]” the “folding stability dG unfold” value was 2.15 ± 0.12 kcal/mol. For “SAGSIPEEIAKELGLPDLKVLKVETKPLPNGPLNIKIIELELPGGFKIKVTVVEEPEKIIIKTEPVPLSAGG [r19_392_JUSTAS]”, the “folding stability dG unfold” value was 0.966 ± 0.034 kcal/mol. In the case of “SAGGSAGGSAGGSLELTFLLEDGTLAKVRIELNEDGELSISVELFELPAPEPVEVRFYPESAGGSAGGSAGG [r7_79_TrROS_Hall]”, the “folding stability dG unfold” value is reported as 1.42 ± 0.051 kcal/mol. With “SAGGSAGGKPEVKITLVIEVETEEELKALAEELAALLGAEVEVRVERREDGRLLVTVTITVPAESAGGSAGG [r6_719_TrROS_Hall]” the “folding stability dG unfold” value was 3.28 ± 0.14 kcal/mol. With “SAGGSAMEIDIDPEKNEIRIYNPWNGQPHPFTIESIEPIDPDNKYFKFKIKYPDTGKEMPFMVQIDSAGGSA [r15_209_TrROS]” the “folding stability dG unfold” value was 0.57 ± 0.042 kcal/mol. For “SAGKMVKITITGPADKIKELLKKLFPNAEVEVKKVNGKLVFYFKPGEEVIEIEITDKDGNKLTIKIEKVSAG [r5_123_TrROS_Hall]”, the “folding stability dG unfold” value was 2.54 ± 0.066 kcal/mol. With “SAGGSSSSMVVVTLTFPPDVSPEEVIEKIAATPGVGAQPISYDPATGTFTIRVGSTDPKAVEEVLGSAGGSA [r2_305_JUSTAS]” the “folding stability dG unfold” value was 0.878 ± 0.022 kcal/mol. In the case of “SAGGSAGGSAGGMALIKLPNGEVQPVKIKAIDPDGNILVEPENSEWQTFSFDGLEIIPLPSAGGSAGGSAGG [r7_823_TrMRF]”, the “folding stability dG unfold” value is reported as 0.647 ± 0.041 kcal/mol. For “SEALEKAAEAGVKTIYVYVKPGDLEEIKRLKALDVKIVLYATEEIPPEAFEALPGVKVEKVEWISPEELPSA [r9_671_TrMRF]”, the “folding stability dG unfold” value was 0.759 ± 0.023 kcal/mol. For “SALRPDIPFDAVEKVVIPARHPLLGGVVEAGVYRLKDSDAVLVVVTFPDGSKLVFLVRPDDVLDVLDAISAG [r14_240_TrMRF]”, the “folding stability dG unfold” value was 2.38 ± 0.066 kcal/mol. For “SAGKKKKFKIVSVEVEVKEVNGKLVIKMKVKDKKTGKTYEITMTLKVVDKKTKKTYTKTLKVTIKLPKSAGG [r19_129_TrROS_Hall]”, the “folding stability dG unfold” value was 3.46 ± 0.15 kcal/mol. In the case of “SAGGSAGGSAGGKPKKVILIEADTLEEALAAAEALAPPGAKVTVTLVERDGKLYLLVTVDSAGGSAGGSAGG [r7_877_TrROS_Hall]”, the “folding stability dG unfold” value is reported as 2.16 ± 0.045 kcal/mol. In the case of “SAGGSAPGWYPITYEFEDNNKEIKIEVYYPKEDPMVGVDIEDPDGKVIFTIWFPADNAEKALKEILSAGGSA [r15_940_TrROS]”, the “folding stability dG unfold” value is reported as 1.23 ± 0.07 kcal/mol. With “SAGGSKKTIVIPVPPGMSVEQIAAELKAKLEELFPDLKVEVVEVKPDGYVKIKIDGKLILIKFPKPSAGGSA [r2_102_TrROS_Hall]” the “folding stability dG unfold” value was 1.6 ± 0.049 kcal/mol. With “SAGGSAGGSMKLPPELKGKKIRIRVRNKNGETVEAEATVLEDGTIEIKIEGLSEEEITEIEIESAGGSAGGS [r12_477_TrROS_Hall]” the “folding stability dG unfold” value was 2.36 ± 0.038 kcal/mol. For “SAGGSAGGSAGKIRDPNGNPFQIKDVEVEPPGPGDPYISIEYPDNGEEFTLPPEDAEDLFSAGGSAGGSAGG [r17_517_TrROS]”, the “folding stability dG unfold” value was 0.95 ± 0.038 kcal/mol. For “SAGGEELARRLAEELRELGLEVEVVDVDLEEGKITIRVRPAPPPPPVTERRTRRRPDGREVTEERVLSAGGS [r8_318_TrROS_Hall]”, the “folding stability dG unfold” value was 0.282 ± 0.21 kcal/mol. In the case of “SAGGNAKEIASYLADWFQERFPPNMKVKVSVTVTPDGIVVRIRMPGGWQFEITIKDGKLQEIEWTPYSAGGS [r8_287_TrROS]”, the “folding stability dG unfold” value is reported as 2.72 ± 0.07 kcal/mol.

Assay: folding stability dG unfold from chymotrypsin proteolysis; higher = more stable
Outline: as §1
For “SAGGMYVEVVIDNPDPDISPEELAEEVARELAPDPFEIKPVKIEPELIGGIPKVTILFEVDDPEAVEESAGG [r13_979_TrMRF]”, the “folding stability dG unfold” value was 0.958 ± 0.019 kcal/mol. For “KIEIKVHPDGTLLIKAPLELIDLLIKLLKEKGYDAKILKIDPENGYVLIPVKPKPPPIPKPTPEELLKALFS [r1_78_TrMRF]”, the “folding stability dG unfold” value was 3.78 ± 0.1 kcal/mol. With “SAGGKTLVITVEAPPEDWDKILELAREALELGGDVVVVAPFPDGLTVTVRAEKPLGKIVEVTVAPDDASAGG [r13_873_TrMRF]” the “folding stability dG unfold” value was 1.5 ± 0.071 kcal/mol. For “SAGGSAGGSAGGMRLVRITTEDGRTITAPVGETITITRPDGSKVKITRVEVFELPPEDLSAGGSAGGSAGGS [r10_20_TrROS_Hall]”, the “folding stability dG unfold” value was 1.51 ± 0.025 kcal/mol. In the case of “SAGMKITVVELDGKSPEELSEEELKKLAEELLKELFPDVKKVKKVTVKVERLPDGRLVLVEVEIEVEEPSAG [r5_526_TrROS_Hall]”, the “folding stability dG unfold” value is reported as 1.03 ± 0.089 kcal/mol. For “SAGGSAGGRIEVDPEGATIKYEHNPNMMQIEIKYPGKKVQIMIPPDFMKQNPDMPIKDLVEWILSAGGSAGG [r6_369_TrROS]”, the “folding stability dG unfold” value was 0.94 ± 0.089 kcal/mol. For “SAMVSPEEAAKLIAEKIREEHPDPNIVVPVKVEYDPETNTTTITVTVKYPDDPSTETFTYTLAPDDVLKSAG [r14_849_JUSTAS]”, the “folding stability dG unfold” value was 2.19 ± 0.11 kcal/mol. For “SAGGMYEIVDLLSVEPDPETGALTRTFLLRDPDSDRFLVAEVRIDPENPDRVEIRLYDEDGNLIAEFPSAGG [r13_658_TrMRF]”, the “folding stability dG unfold” value was 4.148 ± 0.034 kcal/mol. For “SAGGSPVVLTKSPDGLLYVVTLTDPANSLDRVKAKVTAYDPNKPVPLGELTIELDPKTGKAVSALSSAGGSA [r2_324_JUSTAS]”, the “folding stability dG unfold” value was 0.488 ± 0.089 kcal/mol. In the case of “SAGGDPGWVRVTAEIELDGKNLKIEWWYMPNGNYYYNIEFPNGKEIEIMIPMEPGDVEEFAEYIAKKLSAGG [r13_296_TrROS]”, the “folding stability dG unfold” value is reported as 2.838 ± 0.028 kcal/mol. For “SAGGMKSETIPLTTPEGVPFEVTITTENGKVTVTITPLDPSAPEEVVEAVRAAVEARAAAAGKTVTLVSAGG [r13_774_JUSTAS]”, the “folding stability dG unfold” value was 1.37 ± 0.04 kcal/mol. With “SAGGWYIRIKEIERNNDGVNIDIQIPDPDDPEFFENIAENLAQKLGMPKENIKIRIEPTPMPPDPEEPSAGG [r13_430_TrROS]” the “folding stability dG unfold” value was 0.0789 ± 0.35 kcal/mol. In the case of “MKYTLTLTDPTTPTTSTLTVPNDPEKALALLREAKAANPNLTATLTGVTSEEIVEAAKKAGLKDIKPKTAAS [r1_114_JUSTAS]”, the “folding stability dG unfold” value is reported as 0.301 ± 0.27 kcal/mol. For “SAGGSAGGSAGGSMLVEKKTFKDPKTGKTYIEIVIKDENGNLLSVKILSTEDPEKIEKLLSAGGSAGGSAGG [r7_484_JUSTAS]”, the “folding stability dG unfold” value was 2.55 ± 0.037 kcal/mol. With “SAGSIPEEIAKELGLPDLKVLKVETKPLPNGPLNIKIIELELPGGFKIKVTVVEEPEKIIIKTEPVPLSAGG [r19_392_JUSTAS]” the “folding stability dG unfold” value was 0.64 ± 0.18 kcal/mol.
